From paper PMC6698656, “Structural insights into dimethylation of 12S rRNA by TFB1M: indispensable role in translation of mitochondrial genes and mitochondrial function”

Biological target: hsTFB1M (Homo sapiens, UniProt Q8WVM0 28-346)
Assay: X-ray crystallography; no SAM (binary complex), 3.0 A; EMSA: 50 mM Tris-HCl pH 8.0, 25 mM NaCl, 100 nM RNA, TFB1M 0-2 mM as printed (legend suggests uM), 37 C 30 min; 6% native PAGE, 0.5x TBE
Conditions: protein: recombinant; tags: His6-MBP N-terminal, removed by TEV; hairpin

Chain of hsTFB1M (Q8WVM0 28-346): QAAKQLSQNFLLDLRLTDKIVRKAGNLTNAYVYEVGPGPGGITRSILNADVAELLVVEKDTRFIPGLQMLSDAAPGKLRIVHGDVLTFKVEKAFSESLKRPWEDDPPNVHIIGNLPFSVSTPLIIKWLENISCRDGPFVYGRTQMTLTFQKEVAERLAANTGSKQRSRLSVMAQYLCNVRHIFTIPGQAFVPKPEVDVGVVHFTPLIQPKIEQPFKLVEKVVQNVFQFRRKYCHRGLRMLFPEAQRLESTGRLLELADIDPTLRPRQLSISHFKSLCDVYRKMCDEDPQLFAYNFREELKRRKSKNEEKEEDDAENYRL

## GGUAAGUGUACUGGAAAGUGCACUUGCC (structured_RNA) [h45 RNA (crystal)]
  binding result: binds
